Publication doi:10.1101/2021.03.08.434320

Molecular target: H3K9me2 peptide (ITC)
Test: ITC

fold decrease of binding in pH 6.0 against pH 7.5: 5 fold | stoichiometry N: 1
Substance: Arabidopsis thaliana AGDP3 AGD1-4 (1-290) (domain or fragment)
